From patent publication EP4671282A1 (Jiangsu Hengrui Pharmaceuticals Co., Ltd., dated 2025)
Read-outs that look alike come from different tables or passages of the source.

How the values were obtained:
[1] = target: T1, IL-36R on human skin squamous cell line A431 (human, UniProt Q9HB29 20-575); assay: cell-based or functional assay
T1 sequence (looked up): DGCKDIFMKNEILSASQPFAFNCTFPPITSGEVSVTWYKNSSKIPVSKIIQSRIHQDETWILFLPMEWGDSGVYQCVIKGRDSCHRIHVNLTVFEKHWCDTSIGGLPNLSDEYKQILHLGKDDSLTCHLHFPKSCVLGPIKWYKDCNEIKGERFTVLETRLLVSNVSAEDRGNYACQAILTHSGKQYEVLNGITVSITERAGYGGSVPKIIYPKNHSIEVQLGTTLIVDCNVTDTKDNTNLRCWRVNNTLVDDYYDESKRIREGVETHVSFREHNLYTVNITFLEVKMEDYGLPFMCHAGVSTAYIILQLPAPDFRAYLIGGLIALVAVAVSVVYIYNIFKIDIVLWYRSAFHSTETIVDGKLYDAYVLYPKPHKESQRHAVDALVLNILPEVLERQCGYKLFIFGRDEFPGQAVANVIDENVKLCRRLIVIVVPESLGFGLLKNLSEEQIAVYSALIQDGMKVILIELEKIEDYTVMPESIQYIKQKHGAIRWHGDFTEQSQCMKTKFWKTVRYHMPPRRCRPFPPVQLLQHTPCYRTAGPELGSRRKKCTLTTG

[2] = target: T1, IL-36R on human skin squamous cell line …; assay: cell-based or functional assay; remark: listed apart in the source
[3] = target: T2, human IL-36R full-length protein stably expressed on CHO-K1 cells (human, UniProt Q9HB29 20-575); assay: FACS, CHO-K1 cells overexpressing human IL-36R
T2 construct: FlpIn CHO-K1 line expressing the full-length protein; also called human IL-36R on the surface of CHO-K1 cells; CHO-K1 cells overexpressing human IL-36R
T2 sequence: T1 sequence (looked up)

[4] = target: T2, human IL-36R full-length protein stably …; assay: FACS, CHO-K1 cells overexpressing human IL-36R; remark: listed apart in the source
[5] = target: T2, human IL-36R full-length protein stably …; assay: FACS, CHO-K1 cells overexpressing human IL-36R; remark: listed apart in the source
[6] = target: T3, Human IL-36R protein (His + Avi Tag), Kactus IL1-HM4L2 (human, UniProt Q9HB29 20-335); assay: SPR (Biacore 8K), antibody captured by anti-human IgG Fc, IL-36R as analyte
T3 construct: Bought protein; also called human IL-36R antigen protein; Human IL-36R antigen
T3 sequence: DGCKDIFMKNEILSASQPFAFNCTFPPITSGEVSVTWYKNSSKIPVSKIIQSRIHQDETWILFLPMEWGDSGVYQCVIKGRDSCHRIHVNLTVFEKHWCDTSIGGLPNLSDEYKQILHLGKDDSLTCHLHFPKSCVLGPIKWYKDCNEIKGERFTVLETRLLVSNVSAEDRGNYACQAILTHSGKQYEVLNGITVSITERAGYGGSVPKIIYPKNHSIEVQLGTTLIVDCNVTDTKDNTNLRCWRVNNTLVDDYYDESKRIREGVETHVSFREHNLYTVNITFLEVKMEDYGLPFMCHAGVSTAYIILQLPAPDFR

[7] = target: T4, human IL-23 protein (ACROBiosystems, ILB-H52W5) (human, UniProt Q9NPF7 20-189; P29460 23-328); assay: ELISA, human IL-23 coated
T4 construct: Bought protein; construct not described; also called Human IL-23 antigen; human IL-23 antigen protein
T4 sequence (looked up) 1: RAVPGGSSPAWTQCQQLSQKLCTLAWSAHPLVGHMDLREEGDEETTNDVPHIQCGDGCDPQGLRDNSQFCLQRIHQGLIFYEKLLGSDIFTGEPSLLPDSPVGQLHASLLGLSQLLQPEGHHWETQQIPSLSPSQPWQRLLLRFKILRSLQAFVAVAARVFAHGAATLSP
T4 sequence (looked up) 2: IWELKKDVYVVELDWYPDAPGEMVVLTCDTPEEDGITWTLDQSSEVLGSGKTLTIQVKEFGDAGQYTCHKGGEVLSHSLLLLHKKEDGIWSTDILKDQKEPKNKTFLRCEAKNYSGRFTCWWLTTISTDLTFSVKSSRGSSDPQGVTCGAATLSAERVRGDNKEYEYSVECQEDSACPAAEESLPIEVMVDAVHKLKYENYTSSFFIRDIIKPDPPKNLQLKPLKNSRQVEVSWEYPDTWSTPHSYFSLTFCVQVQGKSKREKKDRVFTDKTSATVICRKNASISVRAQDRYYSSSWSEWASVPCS

[8] = target: T5, human IL-23 protein (Sino Biological, CT048-H08H) (human, UniProt Q9NPF7 20-189; P29460 23-328); assay: SPR (Biacore 8K), antibody captured on Protein A chip, IL-23 as analyte
T5 construct: Detected with Anti-His-HRP in the ELISA, so it carries a His tag
T5 sequence (looked up) 1: T4 sequence (looked up) 1
T5 sequence (looked up) 2: T4 sequence (looked up) 2

[9] = target: T5, human IL-23 protein (Sino Biological, …); assay: competition ELISA, IL-23R coated, biotinylated IL-23 preincubated with antibody
[10] = target: T4, human IL-23 protein (ACROBiosystems, …); assay: SPR (Biacore 8K), antibody captured by anti-human IgG Fc, IL-23 as analyte
[11] = target: T3, Human IL-36R protein (His + Avi Tag), …; assay: SPR (Biacore 8K), antibody captured by anti-human IgG Fc, IL-36R as analyte; remark: listed apart in the source
[12] = target: T5, human IL-23 protein (Sino Biological, …); assay: cell-based or functional assay
[13] = target: T5, human IL-23 protein (Sino Biological, …); assay: ELISA, test sample coated, His-tagged IL-23 in solution
[14] = target: T5, human IL-23 protein (Sino Biological, …); assay: SPR (Biacore 8K), antibody captured on Protein A chip, IL-23 as analyte; remark: listed apart in the source
[15] = target: T6, IL-23 (R&D Systems, 1290-IL-010) (UniProt Q9NPF7 20-189; P29460 23-328); assay: cell-based or functional assay
T6 sequence (looked up) 1: T4 sequence (looked up) 1
T6 sequence (looked up) 2: T4 sequence (looked up) 2

B1: H4H14706P2 (anti-human IL-36R antibody from Regeneron) (antibody, human IgG4 S228P, kappa, V domains shown)
VH: EVQLVESGGGLVQPGRSLRLSCTASGFTFDDYAIHWVRQSPGKGLEWVSVISWNSDVIGYADSVKGRFTISRDNAKNSLYLQMNSLRAEDTALYYCAKGYNWNFFDYWGQGTLVTVSS
VL: EIVLTQSPATLSLSPGERATLSCRASQSVSSYLAWYQQKPGQAPRLLIYNAANRATDIPARFSGSGSGTDFTLTISSLEPEDFAVYYCQQRSNWPLTFGGGTKVEIKR
notes: Control, self-expressed according to WO2020018503A2
[1]
  IL-8 secretion (A431), IL-36α, IC50: 0.64 nM
  IL-8 secretion (A431), IL-36β, IC50: 0.26 nM
  IL-8 secretion (A431), IL-36γ, IC50: 0.06 nM
[2]
  IL-36α-induced A431 IL-8 secretion IC50: 0.15 nM
[3]
  EC50: 0.37 nM
  Maximum MFI: 10900 MFI
[4]
  EC50: 0.51 nM
  Maximum MFI: 11200 MFI
[5]
  EC50: 0.64 nM
  Maximum MFI: 10600 MFI
[6]
  Kd: 6.4 nM
  koff: 0.000364 s⁻¹
  kon: 56800 M⁻¹ s⁻¹

B2: Risankizumab (anti-IL-23 antibody control molecule) (antibody, human IgG1, kappa, L234A L235A, V domains shown)
VH: QVQLVQSGAEVKKPGSSVKVSCKASGYTFTDQTIHWMRQAPGQGLEWIGYIYPRDDSPKYNENFKGKVTITADKSTSTAYMELSSLRSEDTAVYYCAIPDRSGYAWFIYWGQGTLVTVSS
VL: DIQMTQSPSSLSASVGDRVTITCKASRDVAIAVAWYQQKPGKVPKLLIYWASTRHTGVPSRFSGSGSRTDFTLTISSLQPEDVADYFCHQYSSYPFTFGSGTKLEIKR
[7]
  EC50: 4.72 nM
[8]
  Kd: 0.0651 nM
  koff: 4.91e-05 s⁻¹
  kon: 754000 M⁻¹ s⁻¹
[9]
  IC50: 0.61 nM

B3: IL-36R-IL-23-04 (anti-IL-36R and anti-IL-23 bispecific antibody, VHH162_Hu11 on Hu29-19, Structure B) (bispecific antibody, human IgG1, kappa, L234A L235A)
heavy: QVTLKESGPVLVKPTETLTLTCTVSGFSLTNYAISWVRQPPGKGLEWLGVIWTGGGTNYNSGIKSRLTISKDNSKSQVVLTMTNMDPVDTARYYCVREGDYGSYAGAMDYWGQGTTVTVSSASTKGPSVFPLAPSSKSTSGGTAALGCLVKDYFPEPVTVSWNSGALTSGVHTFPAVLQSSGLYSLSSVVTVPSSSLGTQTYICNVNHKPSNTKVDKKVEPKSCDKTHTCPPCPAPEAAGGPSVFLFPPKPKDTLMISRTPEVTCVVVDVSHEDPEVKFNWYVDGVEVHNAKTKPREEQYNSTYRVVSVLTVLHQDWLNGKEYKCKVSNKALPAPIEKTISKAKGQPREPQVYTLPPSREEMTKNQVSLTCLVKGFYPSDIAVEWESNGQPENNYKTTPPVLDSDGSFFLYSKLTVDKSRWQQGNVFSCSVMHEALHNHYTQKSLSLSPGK
light: EVQLVESGGGLVQPGGSLRLSCAASGYSYRTQCLGWYRQAPGKQREAVATISGGGTSTYYSDSVKGRFTISQDNSKTTVYLQMNSLRAEDTAVYYCAKGLSVLGSWCHGGSSYEYTYSGQGTLVTVSSGGGGSGGGGSDIVLTQSPDSLAVSLGERATINCRASESVDYYGISSMHWFQQKPGQPPKLLIYRASNLESGIPARFSGSGSRTDFTLTISSLQAEDVAVYYCQQANKDPYTFGGGTKVEIKRTVAAPSVFIFPPSDEQLKSGTASVVCLLNNFYPREAKVQWKVDNALQSGNSQESVTEQDSKDSTYSLSSTLTLSKADYEKHKVYACEVTHQGLSSPVTKSFNRGEC
notes: VHH fused by a (G4S)2 linker to the N-terminus of the light chain; IgG1 L234A/L235A
[2]
  IL-36α-induced A431 IL-8 secretion IC50: 0.34 nM
[10]
  Kd: 0.0702 nM
  koff: 6.02e-05 s⁻¹
  kon: 858000 M⁻¹ s⁻¹
[11]
  Kd: 17.7 nM
  koff: 0.000216 s⁻¹
  kon: 12200 M⁻¹ s⁻¹

B4: chimeric antibody Ch29 (antibody, human IgG1, kappa, L234A L235A, V domains shown)
VH: QVQLKESGPGLVAPSQSLSITCTVSGFSLTSYAISWVRQPPGKGLEWLGVIWTGGGTNYNSGIKSRLTISKDNSKSQVFLNMNSLQTEDTARYYCVREGDYGSYAGAMDYWGQGTSVTVSS
VL: DIVLTQSPASLAVSLGQRATISCRASESVDYYGISSMHWFQQKPGQPPKLLIYRASNLESGIPARFSGSGSRTDFTLTINRVETDDVATYYCQQANKDPYTFGGGTKLEIKR
[12]
  Activity in inhibiting proliferation of BaF3-IL-23R cells (IC50, nM): 0.175 nM
[13]
  EC50: 1.16 nM
[14]
  Kd: 0.0207 nM
  koff: 8.4e-05 s⁻¹
  kon: 4.05e+06 M⁻¹ s⁻¹
[9]
  IC50: 0.386 nM

B5: BI655130 (anti-human IL-36R antibody from Boehringer Ingelheim) (antibody, human IgG1, kappa, L234A L235A, V domains shown)
VH: QVQLVQSGAEVKKPGASVKVSCKASGYSFTSSWIHWVKQAPGQGLEWMGEINPGNVRTNYNENFRNKVTMTVDTSISTAYMELSRLRSDDTAVYYCTVVFYGEPYFPYWGQGTLVTVSS
VL: QIVLTQSPGTLSLSPGERATMTCTASSSVSSSYFHWYQQKPGQAPRLWIYRTSRLASGVPDRFSGSGSGTDFTLTISRLEPEDAATYYCHQFHRSPLTFGAGTKLEIKR
notes: Control, self-expressed according to WO2013074569A1; also called B1655130
[1]
  IL-8 secretion (A431), IL-36α, IC50: 0.26 nM
  IL-8 secretion (A431), IL-36β, IC50: 0.1 nM
  IL-8 secretion (A431), IL-36γ, IC50: 0.04 nM
[2]
  IL-36α-induced A431 IL-8 secretion IC50: 0.06 nM
[3]
  EC50: 0.51 nM
  Maximum MFI: 13400 MFI
[4]
  EC50: 0.51 nM
  Maximum MFI: 14200 MFI
[5]
  EC50: 0.75 nM
  Maximum MFI: 12900 MFI
[6]
  Kd: 7.16 nM
  koff: 9.54e-05 s⁻¹
  kon: 13300 M⁻¹ s⁻¹

B6: IL-36R-IL-23-03 (anti-IL-36R and anti-IL-23 bispecific antibody, VHH213_Hu07 on Hu29-19, Structure B) (bispecific antibody, human IgG1, kappa, L234A L235A)
heavy: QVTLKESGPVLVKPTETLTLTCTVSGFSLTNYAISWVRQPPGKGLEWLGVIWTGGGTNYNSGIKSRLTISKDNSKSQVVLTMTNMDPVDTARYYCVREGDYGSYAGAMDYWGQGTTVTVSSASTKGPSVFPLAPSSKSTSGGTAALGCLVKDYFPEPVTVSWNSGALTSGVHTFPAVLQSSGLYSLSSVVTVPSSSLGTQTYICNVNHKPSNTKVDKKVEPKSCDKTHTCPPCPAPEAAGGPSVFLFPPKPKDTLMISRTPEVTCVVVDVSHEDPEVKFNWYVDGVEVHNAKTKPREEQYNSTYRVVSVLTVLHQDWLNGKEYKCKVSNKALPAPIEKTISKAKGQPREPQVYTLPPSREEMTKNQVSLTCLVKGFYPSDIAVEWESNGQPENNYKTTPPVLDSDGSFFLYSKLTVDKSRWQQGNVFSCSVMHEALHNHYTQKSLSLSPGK
light: EVQLVESGGGLVQPGGSLRLSCAASGNTFSRYCMGWFRQAPGKELVGVAAIDSDGDTSYADSVEGRFTISRDNAKNTLYLQMNSLRAEDTAVYYCAADFTPSAPPRMGSGGYCFGDYWGQGTLVTVSSGGGGSGGGGSDIVLTQSPDSLAVSLGERATINCRASESVDYYGISSMHWFQQKPGQPPKLLIYRASNLESGIPARFSGSGSRTDFTLTISSLQAEDVAVYYCQQANKDPYTFGGGTKVEIKRTVAAPSVFIFPPSDEQLKSGTASVVCLLNNFYPREAKVQWKVDNALQSGNSQESVTEQDSKDSTYSLSSTLTLSKADYEKHKVYACEVTHQGLSSPVTKSFNRGEC
notes: as for B3
[2]
  IL-36α-induced A431 IL-8 secretion IC50: 0.29 nM
[10]
  Kd: 0.0517 nM
  koff: 4.93e-05 s⁻¹
  kon: 954000 M⁻¹ s⁻¹
[11]
  Kd: 4.28 nM
  koff: 0.000108 s⁻¹
  kon: 25300 M⁻¹ s⁻¹

B7: Hu29-24 (humanized anti-IL-23 antibody) (antibody, human IgG1, kappa, L234A L235A)
heavy: not shown
light: DIVLTQSPDSLAVSLGQRATINCRASESVDYYGISSMHWFQQKPGQPPKLLIYRASNLESGIPARFSGSGSRTDFTLTISSLQAEDVAVYYCQQANKDPYTFGGGTKVEIKRTVAAPSVFIFPPSDEQLKSGTASVVCLLNNFYPREAKVQWKVDNALQSGNSQESVTEQDSKDSTYSLSSTLTLSKADYEKHKVYACEVTHQGLSSPVTKSFNRGEC
[12]
  Activity in inhibiting proliferation of BaF3-IL-23R cells (IC50, nM): 0.178 nM
[15]
  IC50 for inhibiting IL-17 secretion: 0.0289 nM
[13]
  EC50: 1.22 nM
[8]
  Kd: 0.0149 nM
[9]
  IC50: 0.488 nM
